Drawing on patent publication US20250002564A1, this text covers Kd, koff and kon for two substances.

For one assay, the target named is mouse FcγRI (mouse) (UniProt P26151).
Assay [1] deals with mouse FcRn (mouse) (UniProt Q61559). The assay is described as follows: pH 5.6.
Assay [2] has the same target.

mouse FcγRI (mouse), sequence (P26151 25-297 limits assumed): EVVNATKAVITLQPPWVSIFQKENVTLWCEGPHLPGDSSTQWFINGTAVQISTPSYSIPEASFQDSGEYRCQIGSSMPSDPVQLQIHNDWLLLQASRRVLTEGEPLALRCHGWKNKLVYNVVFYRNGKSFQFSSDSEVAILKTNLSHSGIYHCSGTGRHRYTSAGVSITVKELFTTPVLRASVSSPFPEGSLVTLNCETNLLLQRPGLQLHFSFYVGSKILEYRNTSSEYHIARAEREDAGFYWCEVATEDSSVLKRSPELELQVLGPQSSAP
mouse FcRn (mouse), sequence (Q61559 22-297 limits assumed, chain 1 of 2): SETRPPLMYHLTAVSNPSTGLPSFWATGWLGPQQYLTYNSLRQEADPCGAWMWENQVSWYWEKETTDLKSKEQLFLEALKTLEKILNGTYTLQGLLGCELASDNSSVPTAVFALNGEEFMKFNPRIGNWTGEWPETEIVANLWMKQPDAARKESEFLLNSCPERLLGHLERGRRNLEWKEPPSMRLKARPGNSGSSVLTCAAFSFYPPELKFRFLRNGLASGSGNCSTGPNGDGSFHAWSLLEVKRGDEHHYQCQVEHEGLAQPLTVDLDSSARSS
mouse FcRn (mouse), sequence (chain, as listed by the source limits assumed, chain 2 of 2): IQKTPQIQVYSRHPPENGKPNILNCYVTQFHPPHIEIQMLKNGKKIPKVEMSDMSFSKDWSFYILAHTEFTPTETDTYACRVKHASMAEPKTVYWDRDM

For the substance “mouse surrogate Multabody (HD37 IgG2a scFab and scFc on mouse apoferritin light chain), wild-type Fc”, in the assay with mouse FcγRI (mouse), the Kd (in general, the free concentration of one partner at which half of the binding sites on the other are occupied at equilibrium, for simple one-to-one binding) is < 1 pM; the koff (in general, the first-order rate constant of dissociation) was < 1e-07 s⁻¹; the kon – broadly, the rate constant with which the complex forms – came out at 939000 M⁻¹ s⁻¹. Moreover, in the assay with mouse FcRn (mouse) [1], the Kd is < 1 pM and the koff was < 1e-07 s⁻¹. Besides, in the assay with mouse FcRn (mouse) [2], the kon came to 682000 M⁻¹ s⁻¹.

For the substance mouse surrogate Multabody with LALAP Fc, in the assay with mouse FcRn (mouse) [1], the Kd was < 1 pM and the koff is < 1e-07 s⁻¹. This substance had a kon with mouse FcRn (mouse) [2] of 2.4e+06 M⁻¹ s⁻¹.
